Reference: US20100261220A1

Key:
[1] = system: brain α-tubulin (taxotere-stabilized brain microtubules, Example VII)
[2] = system: brain β-tubulin (taxotere-stabilized brain microtubules, Example VII)
[3] = system: adult murine brain tubulin
[4] = system: young murine brain tubulin
[5] = system: α-tubulin of taxotere-stabilized mouse brain microtubules
[6] = biological target: β-tubulin of taxotere-stabilized mouse brain microtubules (mouse); experiment: cell-based or functional assay
[7] = biological target: α-tubulin of taxotere-stabilized mouse brain microtubules (mouse); experiment: cell-based or functional assay

For “GFP-Ttll3Ap (Tetrahymena Ttll3Ap with N-terminal GFP)”, the “in vitro tubulin glycylation activity (3H-glycine incorporation)” value (shortened to “in vitro tubulin glycylation activity”) [1] was “A GFP-Ttll3Ap-enriched extract showed a strong increase in glycylation activity on α- and β-tubulin” and the “in vitro tubulin glycylation activity” value [2] was “A GFP-Ttll3Ap-enriched extract showed a strong increase in glycylation activity on α- and β-tubulin”.

With “GFP-Ttll3Bp (Tetrahymena Ttll3Bp with N-terminal GFP)” the “in vitro tubulin glycylation activity” value [1] was “the GFP-Ttll3Bp-enriched extract had increased activity on α-tubulin”.

“GFP-Ttll6Ap (full-length Tetrahymena Ttll6Ap with N-terminal GFP)” was tested, and the “in vitro glutamylation of microtubules (3H-glutamate, fluorogram)” value (“in vitro glutamylation of microtubules” for short) (HeLa tubulin) was “failed to detectably modify microtubules made of HeLa tubulin”, the “in vitro glutamylation of microtubules” value [3] was “Enriched GFP-Ttll6Ap strongly modified microtubules made of adult brain tubulin” and the “in vitro glutamylation of unpolymerized tubulin (3H-glutamate, fluorogram)” value [3] was “enriched GFP-Ttll6Ap did not modify unpolymerized adult brain tubulin”. The “in vitro glutamylation of microtubules” value [4] was “less efficiently microtubules made of young brain tubulin”.

With “Ttll1p-GFP (Tetrahymena thermophila Ttll1p with an N-terminal GFP)” the “in vitro glutamylase activity of the anti-GFP immunoprecipitate” value [5] was “a glutamylase activity directed mostly toward α-tubulin was co-immunoprecipitated with anti-GFP antibodies from extracts of overexpressing cells”.

For “Ttll6ApΔ710-GFP (truncated Tetrahymena Ttll6Ap, amino acid codons 1-710, with N-terminal GFP)”, the “in vitro glutamylase activity” value (NAP proteins) was “No in vitro activity toward NAP proteins was detected”.

“Ttll6ApΔ710-GFP (truncated Tetrahymena Ttll6Ap, amino acid codons 1-710, with N-terminal GFP) (from UniProt P42212 1-238) (enzyme)” gave an in vitro glutamylase activity of extracts of overexpressing cells, compared to non-induced cells [6] of 100 fold and an in vitro glutamylase activity of extracts of overexpressing cells, compared to non-induced cells [7] of 10 fold.
